In paper PMC3197140 one finds CBRM1/5 binding (αMβ2 activation) on human neutrophils treated with 50 µM peptide for 5 min data, which are given here for 1 molecule.

This assay addresses ^15N labeled FLNA repeat 21.

Molecule MASKPEKRVASSVFITLAPPRRDVRRRRRRRRR [WTMigfilinR9 peptide] showed a CBRM1/5 binding (αMβ2 activation) on human neutrophils treated with 50 µM peptide for 5 min at 37°C, flow cytometry of 2 fold.
